The record followed here is publication PMC6954417, “DSS1 interacts with and stimulates RAD52 to promote the repair of DSBs” (Nucleic Acids Research, 2019).

The assay addresses T1, GST-DSS1 (human, UniProt P60896 1-70).
T1 construct: DSS1, human; expressed from pGEX-KG; NMR numbering runs from M1 to three residues after M67; also called recombinant GST-DSS1 protein; source: E. coli BL21 (DE3), purified (Glutathione 4B-Sepharose, MonoQ); not shown: GST, N-terminal, kept
The experiment in a line: pull-down; quantitative: GST-DSS1 4 uM on GST beads, increasing His6-RAD52, 20 mM Tris-acetate pH 7.5, 100 mM KCl, 0.01% NP40, 1 mM DTT, 1 h, 4°C; band intensities normalised to 6 uM His6-RAD52. The conditions noted are these: both partners purified.

T1 sequence (P60896 whole entry): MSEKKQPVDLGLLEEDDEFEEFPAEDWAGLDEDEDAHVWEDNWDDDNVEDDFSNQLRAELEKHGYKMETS

B1: His6-RAD52 (natural protein, human, UniProt P43351 1-418, looked up)
chain: MSGTEEAILGGRDSHPAAGGGSVLCFGQCQYTAEEYQAIQKALRQRLGPEYISSRMAGGGQKVCYIEGHRVINLANEMFGYNGWAHSITQQNVDFVDLNNGKFYVGVCAFVRVQLKDGSYHEDVGYGVSEGLKSKALSLEKARKEAVTDGLKRALRSFGNALGNCILDKDYLRSLNKLPRQLPLEVDLTKAKRQDLEPSVEEARYNSCRPNMALGHPQLQQVTSPSRPSHAVIPADQDCSSRSLSSSAVESEATHQRKLRQKQLQQQFRERMEKQQVRVSTPSAEKSEAAPPAPPVTHSTPVTVSEPLLEKDFLAGVTQELIKTLEDNSEKWAVTPDAGDGVVKPSSRADPAQTSDTLALNNQMVTQNRTPHSVCHQKPQAKSGSWDLQTYSADQRTTGNWESHRKSQDMKKRKYDPS
notes: RAD52, human, with His6 tag; not shown: His6, N-terminal, kept
Usually stoichiometry N stands for the number of molecules, sites or subunits per partner or assembly. Regarding B1, the “stoichiometry N” value amounted to 1.
